Patent US20240109958A1
Residue numbers refer to the chain shown, from its start.

B1: anti-GGX monoclonal antibody 2E9 (rabbit IgG) (antibody, V domains shown)
VH: QKQLMESGGRLVTPGTPLTLTCKVSGFSLSSYYMNWVRQAPGKGLEWIGIMFPNGKIYYATWAKGRFTISKTSTTVDLKIISPTTEDTATYFCTGDDSGDVNIWGPGTLVTVSS
VL: DIVLTQTASPVSAAVGGTVTINCQSSQSVYTNNRLAWYQQKPGQPAKEMIYGASTLPSGVSSRFKGSGSGTQFALTISDVQCDDAATYYCLGEFDCTSADCFVFGGGTEVVVKG
B2: anti-GGX monoclonal antibody 2H2 (rabbit IgG) (antibody, V domains shown)
VH: QSVEESRGRLVTPGTPLTLTCKVSGFSLSSYYMNWVRQAPGKGLEWIGIMFPNGKIYYATWAKGRFTISKTSTTVDLKIISPTTEDTATYFCTGDDSGDVNIWGPGTLVTVSS
VL: B1 VL with I2P, V3M, T31S, A46P, A74T, E93T, F94Y, T97L, F102L, V103A
B3: anti-GGX monoclonal antibody 2B12 (rabbit IgG) (antibody, V domains shown)
VH: QSVEESGGGLVTPGGALTLTCTASGFSLNRHWMNWVRQAPGKGLEWIGAINESGRTYYATWAKGRFFISKTTTTVDLKITSPTTADTATYFCVRDDDVSNFWGPGTLVTVSS
VL: DPMLTQTPSSVSAAVGGTVSINCQSTKSVYKYNHLSWYQQKPGQPPKQLIFPASTLQSGVPSRFSGSGSGTQFTLTISDVQCDDAATYYCLGLYDCRSGDCNVFGGGTKLEIKG

The binders below were run against internal GGX peptides (genome-encoded GGX sequences exposed by trypsin digestion of HEK293 lysate) (assay: immunoaffinity enrichment from trypsin-digested HEK293 lysate, LC-MS/MS; count of internal GGX sequences enriched).
Binder B1 has a Shared sequences of 14 sequences and a Unique sequences of 41 sequences. B2 gave a Shared sequences of 20 sequences and a Unique sequences of 47 sequences. B3 gave a Shared sequences of 8 sequences and a Unique sequences of 8 sequences.
